Here are results for seven molecules from paper PMC4627094.

Series [1] addresses T1, APOBEC3G (A3G) (human, UniProt Q9HC16 1-384). Put plainly: fluorescence anisotropy; 10 mM MgCl2; 40 mM Tris pH 7.2, 50 mM NaCl, 10 mM MgCl2, 1 mM DTT, 0.1% Triton X-100, 2% glycerol, 37 C 20 min; FA with 2 nM labeled NA; UV cross-linking in 1X PBS, 37 C 20.
In series [2] the target is T1, APOBEC3G (A3G). Put plainly: competition (fluorescence anisotropy); vs labeled 25 nt Sub RNA (N2); 40 mM Tris pH 7.2, 50 mM NaCl, 10 mM MgCl2, 1 mM DTT, 0.1% Triton X-100, 2% glycerol, 37 C 20 min; FA with 2 nM labeled NA; UV cross-linking in 1X PBS, 37 C 20. Background: In fluorescence polarisation assays a small probe gives low polarisation when free and higher when bound to something large.

Series [3] deals with T1, APOBEC3G (A3G). Kind of series: competition (fluorescence anisotropy); vs labeled 25 nt Sub ssDNA (N1); 40 mM Tris pH 7.2, 50 mM NaCl, 10 mM MgCl2, 1 mM DTT, 0.1% Triton X-100, 2% glycerol, 37 C 20 min; FA with 2 nM labeled NA; UV cross-linking in 1X PBS, 37 C 20.
In series [4] the target is T1, APOBEC3G (A3G). Put plainly: EMSA; 37 C, 2.0 uM RNA; 40 mM Tris pH 7.2, 50 mM NaCl, 10 mM MgCl2, 1 mM DTT, 0.1% Triton X-100, 2% glycerol, 37 C 20 min; FA with 2 nM labeled NA; UV cross-linking in 1X PBS, 37 C 20.

T1 sequence (Q9HC16 whole entry): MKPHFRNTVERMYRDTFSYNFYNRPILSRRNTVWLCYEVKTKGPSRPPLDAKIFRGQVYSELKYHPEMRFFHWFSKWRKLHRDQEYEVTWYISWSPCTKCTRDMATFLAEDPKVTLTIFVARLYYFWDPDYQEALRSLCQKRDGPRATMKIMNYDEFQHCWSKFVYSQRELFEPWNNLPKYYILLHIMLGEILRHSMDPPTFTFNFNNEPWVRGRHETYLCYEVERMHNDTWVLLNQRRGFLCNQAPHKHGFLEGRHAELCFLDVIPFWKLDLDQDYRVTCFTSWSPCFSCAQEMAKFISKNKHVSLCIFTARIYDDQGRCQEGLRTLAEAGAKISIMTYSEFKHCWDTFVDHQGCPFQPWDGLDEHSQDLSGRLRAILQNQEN

One may read the Kd as the free concentration of one partner at which half of the binding sites on the other are occupied at equilibrium, for simple one-to-one binding. The low end stands for tighter binding, the high end for weaker binding. In the series with APOBEC3G (A3G) [1], TTATTUUUAAGGATTTATTTATTTA (ssDNA, dU at positions 6-8) [25 nt Sub ssDNA, Alexa 647] yielded a Kd of 0.0038 µM.

One may read the IC50 as the concentration that gives 50% inhibition. UUAUUUUUAAGGAUUUAUUUAUUUA (ssRNA) [25 nt Sub RNA, unlabeled]: the 50% inhibitory concentration (IC50) with APOBEC3G (A3G) [2] worked out at 0.115 µM; in the series with APOBEC3G (A3G) [3], 0.057 µM.

On to TTATTUUUAAGGATTTATTTATTTA (ssDNA, dU at positions 6-8) [25 nt Sub ssDNA (unlabeled or 32P)], for which the half-inhibitory concentration (IC50) in the series with APOBEC3G (A3G) [2] was 0.022 µM; with APOBEC3G (A3G) [3], 0.015 µM.

Regarding CAUAUAUGAUACAAUUUGAUCAGUA (ssRNA) [25 nt ApoB RNA], the binding result in the series with APOBEC3G (A3G) [4] is recorded as “binds”.

The molecule UUAUUUUUAAGGAUUUAUUUAUUUA (ssRNA) [25 nt Sub RNA, Alexa 647] had a Kd with APOBEC3G (A3G) [1] of 0.0029 µM.

On to TTATTUUUAAGGATT (ssDNA, dU at positions 6-8) [15 nt Sub ssDNA, Alexa 647], for which the dissociation constant Kd in the series with APOBEC3G (A3G) [1] was determined as 0.01 µM.

Turning to UUAUUUUUAAGGAUU (ssRNA) [15 nt Sub RNA, Alexa 647], binding with APOBEC3G (A3G) [1] was characterised by a dissociation constant (Kd) of 0.0044 µM.
